Assay results: US20230357323A1 (University of Washington, published 2023)
Residue numbers refer to the chain shown, from its start. Values belong to the binder of their own block, whether it stands above or below them. No end group written: not given here.

T1: human IL-23 cytokine (p19/p40 heterodimer) (human, UniProt Q9NPF7 20-189; P29460 23-328)
T1 construct: recombinant human IL-23 (R&D 1290-IL) is named for the cell assay; also called native ligand
T1 sequence (looked up) 1: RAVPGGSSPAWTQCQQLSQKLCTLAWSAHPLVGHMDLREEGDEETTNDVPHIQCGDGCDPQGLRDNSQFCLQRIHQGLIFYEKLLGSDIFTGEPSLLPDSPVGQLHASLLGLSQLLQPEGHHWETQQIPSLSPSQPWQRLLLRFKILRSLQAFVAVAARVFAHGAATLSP
T1 sequence (looked up) 2: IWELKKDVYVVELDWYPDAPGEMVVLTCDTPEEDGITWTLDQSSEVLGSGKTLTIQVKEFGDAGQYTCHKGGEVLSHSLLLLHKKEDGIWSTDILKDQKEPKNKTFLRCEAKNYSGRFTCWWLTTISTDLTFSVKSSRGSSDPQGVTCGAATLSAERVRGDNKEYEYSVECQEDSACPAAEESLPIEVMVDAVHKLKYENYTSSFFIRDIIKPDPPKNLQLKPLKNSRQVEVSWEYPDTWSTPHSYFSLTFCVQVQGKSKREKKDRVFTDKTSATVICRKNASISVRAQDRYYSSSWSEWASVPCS

B1: B0402SD (designed binder)
chain: PLWQIFYLLNTCIKRTGDPTCKKLIKALRECLKKGDPKACAELADKAMKYIMS
B2: B0402SG (designed binder)
chain: B1 chain with P1E, D45K
B3: B0402SE (designed binder)
chain: B1 chain with P1Q, I25K, P37A, A41K, L43A, M48V
B4: B0402SF (designed binder)
chain: B1 chain with P1E, P37A, A41S
B5: 23R_A (designed binder)
chain: MESEKYLRELVKKYYEGKLSVQEAVEEVRKYARKKGLEAWMLTWMFMELVKRYIHHHHHH
notes: purified from E. coli for BLI
B6: B0402IA (designed binder)
chain: PLWQVFYLLNTCIKRTGDPTCKKLAKALRECLKPGDVKACKEVADKAMDYIRS
B7: rA11dslf02_M1P_R8Q_K35W (designed binder)
chain: PEPEKYLQELCKKYYEGKLSQQEAVEEIRKYARKWGLEAWKLVWYFMQCVKRDIHHHHHH
B8: B04dslf02IB (designed binder)
chain: PLWQVFYLLNTCIKRTGDPTCKKLAKALRECLKKGDLKACNELADKAVKYINSHHHHHH
notes: purified form with C-terminal tag; also called B0402IB; BO4dslf02IB
B9: B0402IE (designed binder)
chain: NLWYIFYLLNTCIKRTCDPTCKVLAKALRECLKKGDLKACSELADKAVDYIRS
B10: B08 (designed binder)
chain: NLWQIFYVLNTIYKRTGDPTAKKLNKALREALKKHDEKATKELAKKATKYIRS
B11: B0402ID (designed binder)
chain: ELWQVFYLLNTCIKRTCDPTCKKLAKALRECLKKGDLKACKEDAYKALDYIRS
B12: 23R_B (designed binder)
chain: NLWQIFYQLSTILKRTGDPTAKKLLKALAEALKKGDEKALKELAKKATKYIRSHHHHHH
notes: purified from E. coli for BLI
B13: B0402IC (designed binder)
chain: PLWQIFYLLNTCIKRTGDPTCKVLSKALRECLKKGDVKACSELASKAEKYINS
B14: human IL-23R (hIL-23R), custom construct with C-terminal avi and his tags, biotinylated (receptor, UniProt Q5VWK5 24-355, looked up, not shown: small tags and cut ends)
chain: GITNINCSGHIWVEPATIFKMGMNISIYCQAAIKNCQPRKLHFYKNGIKERFQITRINKTTARLWYKNFLEPHASMYCTAECPKHFQETLICGKDISSGYPPDIPDEVTCVIYEYSGNMTCTWNAGKLTYIDTKYVVHVKSLETEEEQQYLTSSYINISTDSLQGGKKYLVWVQAANALGMEESKQLQIHLDDIVIPSAAVISRAETINATVPKTIIYWDSQTTIEKVSCEMRYKATTNQTWNVKEFDTNFTYVQQSEFYLEPNIKYVFQVRCQETGKRYWQPWSSLFFHKTPETVPQVTSKAFQHDTWNSGLTVASISTGHLTSDNRGDIG
modifications: enzymatically biotinylated via the avi-tag
notes: immobilized on streptavidin tips in BLI, labeled target in FACS; also called human IL-23 receptor

Key:
[1] = target: B14; test: yeast display FACS, SIF incubation then labeled hIL-23R, 5-7 rounds
Procedure: Yeast libraries were first incubated in SIF at 30C, then washed thoroughly and incubated with labeled hIL-23R, and cells retaining the highest binding signal (top 1-5%) were collected by FACS. Two rounds of selection were performed for each library, and the SIF incubation time and/or concentration of proteases were increased from first to second round. […] Indeed in several libraries we saw a large population of Myc-negative, binding-positive cells. In parallel, we performed two rounds of selection for binding to hIL-23R only, without pre-incubation in SIF. […] Best mutations were included in combinatorial libraries, sorted as above for 5-7 rounds after which individual clones were sequenced. Variants present in the final sorts were expressed in E. coli and characterized (SEQ ID NOS: 70-74 and 153-164).
Yeast strain EBY100 was transformed with each library and vector by electroporation and grow in minimal media selective for the yeast strain (-ura) and the transforming plasmid (-trp).²⁷ Expression was induced with 2% galactose. Surface expression was detected with anti-Myc-FITC (Immunology Consultants Laboratory) conjugate, and binding to biotinylated IL-23R was detected with streptavidin-PE (Invitrogen).
SIF SSM and combinatorial libraries were prepared as follows: after 16-24 hours induction, yeast were spun down, washed with PBSF, resuspended in SIF (recipe described below) at an OD of 2.0, and incubated at 30° C. shaking for 30-90 minutes as noted. After SIF digest, cells were spun down and washed 4 times with 800 uL PBSF, manually aspirating the supernatant each time to ensure complete washing to remove proteases. SIF-treated cells were then treated with target protein as described above.

[2] = target: B14; test: BLI titration, biotinylated hIL-23R on streptavidin tips
Procedure: (§1) Qualitative and quantitative assessment of binding affinity was performed using biolayer interferometry (ForteBio Octet™ […] and associated software for analysis). Enzymatically biotinylated target protein (30 nM) was immobilized on streptavidin-coated sensor tips, then sequentially dipped in wells with: buffer only (baseline), inhibitor in solution (association), and buffer only (dissociation). Kinetic constants were determined from the mathematical fit of a 1:1 binding model.

[3] = target: B14; test: biolayer interferometry titration, biotinylated hIL-23R immobilised on streptavidin tips, 1:1 fit
Procedure: (§2) Variants were first screened for relative binding to hIL-23R with biolayer interferometry (BLI). hIL-23R was immobilized on the BLI sensor tips and binding to each variant in solution at a constant concentration (50 nM) was measured to qualitatively determine relative performance of the variants. For the best-performing variants, binding constants (KD, including kₒₙ, and koff) were quantitatively determined with BLI titration experiments in triplicate.
as §1

[4] = target: IL-23R on IL-23 reporter cells (Promega IL-23 Bioassay); test: cell-based or functional assay
Sequence of IL-23R on IL-23 reporter cells (Promega IL-23 Bioassay) (Q5VWK5 whole entry): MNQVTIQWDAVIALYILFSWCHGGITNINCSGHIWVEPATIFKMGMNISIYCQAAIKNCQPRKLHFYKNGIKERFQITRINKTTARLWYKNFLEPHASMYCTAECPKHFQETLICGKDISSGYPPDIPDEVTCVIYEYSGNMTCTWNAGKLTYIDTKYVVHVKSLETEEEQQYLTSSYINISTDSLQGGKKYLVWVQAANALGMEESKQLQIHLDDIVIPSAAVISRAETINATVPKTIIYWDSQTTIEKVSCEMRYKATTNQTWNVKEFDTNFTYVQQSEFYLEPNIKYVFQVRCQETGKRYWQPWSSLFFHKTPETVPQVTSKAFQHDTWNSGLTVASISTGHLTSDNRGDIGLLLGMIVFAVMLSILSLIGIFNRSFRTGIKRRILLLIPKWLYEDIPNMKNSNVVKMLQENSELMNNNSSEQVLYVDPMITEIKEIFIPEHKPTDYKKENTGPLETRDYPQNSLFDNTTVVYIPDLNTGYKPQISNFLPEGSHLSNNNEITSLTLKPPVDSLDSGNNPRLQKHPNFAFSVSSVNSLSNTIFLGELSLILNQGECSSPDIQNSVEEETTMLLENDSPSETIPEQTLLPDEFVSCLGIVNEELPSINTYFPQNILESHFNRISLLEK

[5] = target: B14; test: SPR
[6] = target: B14; test: yeast display FACS
[7] = target: IL-23R on IL-23 reporter cells (Promega IL-23 Bioassay); test: cell-based or functional assay; remark: listed apart in the source
[8] = target: B14; test: biolayer interferometry titration, biotinylated hIL-23R immobilised on streptavidin tips
Procedure: as §2, §1

[9] = target: T1, human IL-23 cytokine (p19/p40 …); test: method not stated here (FIG. 2E lists constants of the native ligand)
[10] = target: T1, human IL-23 cytokine (p19/p40 …); test: table of binding constants on hIL-23R; biolayer interferometry per paragraph 183 and paragraph 210, method not stated separately for this row
Procedure: as §2, §1

Binder: B1
binding result [1]: binds

Binder: B2
binding result [1]: binds

Binder: B3
binding result [1]: binds

Binder: B4
binding result [1]: binds

Binder: B5
Kd [2]: 26 nM
koff [3]: 0.014 s⁻¹
kon [3]: 560000 M⁻¹ s⁻¹

Binder: B6
binding result [1]: binds

Fold better than competitor (IC50 against that of PTG compound C, IL-23 reporter cell assay) [table] [4]: 16 fold
IC50; inhibition of luciferase signal of IL-23 reporter cells stimulated with 8 ng/mL human IL-23 [table] [4]: 487 nM
Binder: CRVCKNGFCVDARECWMAYYLLNQYN (designed binder, not fully specified (bridges); cysteine pairing not given here) [23R_mini_14_C4]

Binder: B7
Kd [5]: 0.075 nM

binding result [6]: binds
Binder: ASPELKETCERLERLGMERWLILWCKQRAEEG (designed binder) [23R_mini_08]

Fold better than competitor (IC50 against that of PTG compound C, IL-23 reporter cell assay) [table] [4]: 27 fold
IC50; inhibition of luciferase signal of IL-23 reporter cells stimulated with 8 ng/mL human IL-23 [table] [4]: 281 nM
Binder: CKVKCGPVEFEATERWMCFYWYNKYC (designed binder, not fully specified (bridges); cysteine pairing not given here) [23R_mini_17_C11]

Binder: B8
Kd [5]: < 0.001 nM
IC50 (read off the curve); IL-23-stimulated luciferase signal in IL-23 reporter cells [lower graph] [7]: ~40 nM
Fold better than competitor (IC50 against that of PTG compound C, IL-23 reporter cell assay) [table] [4]: 484 fold
IC50; inhibition of luciferase signal of IL-23 reporter cells stimulated with 8 ng/mL human IL-23 [table] [4]: 16 nM

Binder: B9
binding result [1]: binds

Binder: B10
Kd [8]: 0.046 nM
Kd [3]: 0.046 nM
koff [3]: 4.6e-05 s⁻¹
kon [3]: 990000 M⁻¹ s⁻¹

Binder: B11
binding result [1]: binds

Binder: B12
Kd [2]: 70 nM
Kd [3]: 50 nM
koff [3]: 0.015 s⁻¹
kon [3]: 500000 M⁻¹ s⁻¹

Binder: B13
binding result [1]: binds

Binder: B14
Kd [9]: 1.7 nM
Kd [10]: 1.69 nM
koff [10]: 0.0013 s⁻¹
kon [10]: 780000 M⁻¹ s⁻¹
